The record followed here is US20250026849A1 (ARCELLX, published 2025).

B1: D domain of SEQ ID NO: 602 (designed binder)
chain: MGSWNEFVERLSAIDHRLWALGGSEAELADFEQQIAEFEIHLQEYKGKGNPEVEALDFEADAIFDELLAYRHN
B2: D domain of SEQ ID NO: 590 (designed binder)
chain: MGSWEEFHERLDAIDERLEALGGSEAELAFFEDDIASFEDWLQWYKGKGNPEVEALSREADAINFELEAYRHN
B3: D domain of SEQ ID NO: 593 (designed binder)
chain: MGSWVEFIMRLDAIYERLDALGGSEAELAEFEWHIADFEDHLQWYKGKGNPEVEALFEEADAIWEELWAYRHN
B4: D domain of SEQ ID NO: 585 (designed binder)
chain: MGSWYEFESRLEAIWWRLEALGGSEAELAQFEQYIADFEQHLQWYKGKGNPEVEALDWEADAIWLELQAYRHN
B5: D domain of SEQ ID NO: 592 (designed binder)
chain: MGSWTEFTQRLEAIVDRLFALGGSEAELAEFENSIADFEWDLQWYKGKGNPEVEALNREAVAIDNELWAYRHN
B6: D domain of SEQ ID NO: 581 (designed binder)
chain: MGSWTEFDDRLFAIYWRLDALGGSEAELAWFEEVIAEFENDLQVYKGKGNPEVEALDDEAHAISIELEAYRHN
B7: D domain of SEQ ID NO: 595 (designed binder)
chain: MGSWYEFNMRLGAIDDRLQALGGSEAELAWFEDMIAIFEDDLQIYKGKGNPEVEALEQEAAAIHQELWAYRHN
B8: D domain of SEQ ID NO: 597 (designed binder)
chain: MGSWYEFYERLWAIDDRLWALGGSEAELAEFEDSIATFEPSLQMYKGKGNPEVEALVAEAWAIFDELAAYRHN
B9: D domain of SEQ ID NO: 615 (designed binder)
chain: MGSWFEFEYRLDAIIDRLFALGGSEAELAEFESMIANFEYSLQEYKGKGNPEVEALYFEADAIVDELTAYRHN
B10: D domain of SEQ ID NO: 594 (designed binder)
chain: MGSWNEFLLRLDAIEHRLFALGGSEAELAEFEWEIADFEDDLQWYKGKGNPEVEALVEEAEAIDVELVAYRHN
B11: D domain of SEQ ID NO: 576 (designed binder)
chain: MGSWEEFDVRLDAIFNRLWALGGSEAELAEFEFDIAWFEMDLQEYKGKGNPEVEALFDEAEAITNELVAYRHN
B12: D domain of SEQ ID NO: 614 (designed binder)
chain: MGSWYEFSSRLNAIDDRLWALGGSEAELAYFETDIADFESLLQWYKGKGNPEVEALLNEADAIDYELYAYRHN
B13: D domain of SEQ ID NO: 601 (designed binder)
chain: MGSWYEFDDRLWAIFDRLFALGGSEAELAFFEDSIAEFEEELQHYKGKGNPEVEALYLEAWAIENELGAYRHN
B14: D domain of SEQ ID NO: 582 (designed binder)
chain: MGSWSEFDQRLEAIWNRLDALGGSEAELADFEREIAYFENQLQWYKGKGNPEVEALNNEAFAIVDELGAYRHN
B15: D domain of SEQ ID NO: 598 (designed binder)
chain: MGSWFEFDQRLDAITFRLWALGGSEAELAEFEDVIALFEYHLQDYKGKGNPEVEALEVEAWAIFHELGAYRHN
B16: D domain of SEQ ID NO: 607 (designed binder)
chain: MGSWYEFEDRLAAIWDRLNALGGSEAELAIFEWDIAWFEEGLQEYKGKGNPEVEALKHEASAIQTELFAYRHN
B17: D domain of SEQ ID NO: 586 (designed binder)
chain: MGSWEEFYMRLVAIHMRLRALGGSEAELAVFENYIAEFEEYLQYYKGKGNPEVEALTIEADAIGTELGAYRHN
B18: D domain of SEQ ID NO: 613 (designed binder)
chain: MGSWIEFFHRLDAIQDRLDALGGSEAELAYFEWAIADFEHMLQLYKGKGNPEVEALQFEAFAIEGELYAYRHN
B19: D domain of SEQ ID NO: 609 (designed binder)
chain: MGSWMEFEDRLIAIWARLDALGGSEAELAWFEADIADFEESLQEYKGKGNPEVEALIFEAIAINKELMAYRHN
B20: D domain of SEQ ID NO: 580 (designed binder)
chain: MGSWVEFDDRLDAIWERLDALGGSEAELAWFEEQIAVFEHQLQDYKGKGNPEVEALNQEAEAIDLELKAYRHN
B21: D domain of SEQ ID NO: 591 (designed binder)
chain: MGSWNEFYERLEAIDRRLFALGGSEAELALFEWMIADFEDDLQMYKGKGNPEVEALINEAGAIGFELEAYRHN
B22: D domain of SEQ ID NO: 600 (designed binder)
chain: MGSWYEFWDRLTAIEHRLWALGGSEAELAYFEDSIAHFEGSLQVYKGKGNPEVEALYKEAEAIEWELEAYRHN
B23: D domain of SEQ ID NO: 596 (designed binder)
chain: MGSWEEFHWRLGAIDARLEALGGSEAELAWFEDGIADFEAILQDYKGKGNPEVEALDSEAVAIHHELWAYRHN
B24: D domain of SEQ ID NO: 578 (designed binder)
chain: MGSWYEFDHRLEAIYDRLWALGGSEAELAFFEFDIADFEWDLQSYKGKGNPEVEALFDEAAAIGHELLAYRHN
B25: D domain of SEQ ID NO: 612 (designed binder)
chain: MGSWEEFDYRLYAIQDRLYALGGSEAELAFFEWEIADFEHMLQMYKGKGNPEVEALFQEADAIDAELHAYRHN
B26: D domain of SEQ ID NO: 606 (designed binder)
chain: MGSWTEFEERLEAIWDRLYALGGSEAELAAFEWDIAYFEDGLQEYKGKGNPEVEALFMEAEAIIRELKAYRHN
B27: D domain of SEQ ID NO: 608 (designed binder)
chain: MGSWLEFESRLWAIWDRLDALGGSEAELAHFEQDIADFEMSLQEYKGKGNPEVEALIREAEAIETELYAYRHN
B28: D domain of SEQ ID NO: 584 (designed binder)
chain: MGSWMEFDYRLEAIWMRLIALGGSEAELADFESSIADFEHHLQSYKGKGNPEVEALEWEAFAIGVELDAYRHN
B29: D domain of SEQ ID NO: 589 (designed binder)
chain: MGSWREFDQRLWAIDWRLEALGGSEAELAMFEWMIATFEDDLQWYKGKGNPEVEALYREAFAIDWELDAYRHN
B30: D domain of SEQ ID NO: 611 (designed binder)
chain: MGSWYEFVSRLDAIEYRLWALGGSEAELAWFEWDIADFEQGLQFYKGKGNPEVEALAQEANAIGSELTAYRHN
B31: D domain of SEQ ID NO: 599 (designed binder)
chain: MGSWSEFWFRLDAIEDRLWALGGSEAELAEFEDNIALFEYSLQHYKGKGNPEVEALVKEANAIDDELGAYRHN
B32: D domain of SEQ ID NO: 588 (designed binder)
chain: MGSWEEFDTRLLAIFGRLGALGGSEAELALFEMLIAKFEDDLQNYKGKGNPEVEALSEEAFAIDHELGAYRHN
B33: D domain of SEQ ID NO: 603 (designed binder)
chain: MGSWSEFVDRLDAIFDRLWALGGSEAELAWFEDTIAHFEWNLQEYKGKGNPEVEALNGEADAITDELHAYRHN
B34: D domain of SEQ ID NO: 610 (designed binder)
chain: MGSWFEFTIRLEAIQDRLDALGGSEAELAWFEWDIAEFEEGLQFYKGKGNPEVEALHTEADAIMNELVAYRHN
B35: D domain of SEQ ID NO: 579 (designed binder)
chain: MGSWNEFDDRLLAIWGRLDALGGSEAELAFFEEQIAGFEDELQWYKGKGNPEVEALDQEAEAIEKELWAYRHN
B36: D domain of SEQ ID NO: 583 (designed binder)
chain: MGSWYEFDERLWAIWERLDALGGSEAELAHFEWVIADFENDLQWYKGKGNPEVEALEFEAEAIVTELHAYRHN
B37: D domain of SEQ ID NO: 587 (designed binder)
chain: MGSWDEFYYRLVAITHRLHALGGSEAELAWFEDDIAGFEWDLQTYKGKGNPEVEALYKEAGAIGMELTAYRHN
B38: D domain of SEQ ID NO: 605 (designed binder)
chain: MGSWAEFDSRLIAIFDRLWALGGSEAELAWFEDDIAQFEQHLQAYKGKGNPEVEALRQEADAITFELKAYRHN
B39: D domain of SEQ ID NO: 577 (designed binder)
chain: MGSWEEFDKRLDAITRRLMALGGSEAELAEFESTIAWFEWDLQEYKGKGNPEVEALDWEAYAIDYELGAYRHN
B40: D domain of SEQ ID NO: 604 (designed binder)
chain: MGSWAEFDSRLDAIAQRLFALGGSEAELAHFEDFIAQFEYSLQEYKGKGNPEVEALSNEADAIFNELKAYRHN

In this experiment the target is T1, CD123 (Homo sapiens (Human), UniProt P26951 19-305, limits assumed).
T1 construct: The CD123 construct used in the ELISA is not described; also called CD123-Signal
T1 sequence: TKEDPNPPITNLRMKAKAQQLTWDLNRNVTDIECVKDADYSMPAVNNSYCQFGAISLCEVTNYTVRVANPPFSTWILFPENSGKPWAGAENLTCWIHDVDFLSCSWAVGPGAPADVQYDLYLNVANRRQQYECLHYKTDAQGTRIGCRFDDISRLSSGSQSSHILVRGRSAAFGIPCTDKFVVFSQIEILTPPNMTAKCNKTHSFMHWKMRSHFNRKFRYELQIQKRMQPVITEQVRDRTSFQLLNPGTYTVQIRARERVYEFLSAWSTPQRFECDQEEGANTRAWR
Description: ELISA. The arrangement: unit not given here.
With B1, the ELISA_avg is 3.2.

Consider B2, for which the ELISA_avg is 4.3.

For B3, the ELISA_avg came to 6.4.

In turn, B4 had an ELISA_avg of 4.4.

As for B5, the ELISA_avg worked out at 3.9.

In turn, B6 registered an ELISA_avg of 6.4.

In turn, B7 gave an ELISA_avg of 3.8.

In the case of B8, the ELISA_avg amounted to 3.6.

Molecule B9 registered an ELISA_avg of 4.

On to B10, for which the ELISA_avg turned out to be 3.2.

For the molecule B11, the ELISA_avg stood at 4.7.

Molecule B12 came in with an ELISA_avg of 3.8.

Regarding B13, the ELISA_avg was 4.7.

For B14, the ELISA_avg is 3.4.

Molecule B15 showed an ELISA_avg of 3.2.

On to B16, for which the ELISA_avg stood at 6.4.

Regarding B17, the ELISA_avg stood at 4.4.

In turn, B18 showed an ELISA_avg of 3.5.

B19 displayed an ELISA_avg of 3.7.

Regarding B20, the ELISA_avg was 5.

The molecule B21 came in with an ELISA_avg of 5.2.

With B22, the ELISA_avg turned out to be 4.4.

Consider B23, for which the ELISA_avg is 3.3.

B24: the ELISA_avg came to 4.5.

Molecule B25 returned an ELISA_avg of 4.4.

B26 yielded an ELISA_avg of 5.9.

B27 showed an ELISA_avg of 3.4.

B28 had an ELISA_avg of 3.1.

In turn, B29 had an ELISA_avg of 3.4.

The molecule B30 yielded an ELISA_avg of 3.2.

Take B31: the ELISA_avg was 4.5.

Turning to B32, the ELISA_avg stood at 6.7.

For the molecule B33, the ELISA_avg came to 5.3.

Molecule B34 showed an ELISA_avg of 3.5.

With B35, the ELISA_avg is 4.1.

In turn, B36 displayed an ELISA_avg of 3.6.

B37: the ELISA_avg was determined as 5.4.

B38 had an ELISA_avg of 3.6.

With B39, the ELISA_avg came out at 4.5.

B40 came in with an ELISA_avg of 3.6.
